± gives the uncertainty stated by the source.

This data set can be described thus: amyloid nucleation score (Sup35N fusion, yeast selection) (log enrichment); library NNK3; higher = more nucleation; inactive = no reads after selection. The method, boiled down: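 Nucleation score is defined as the DiMSum log enrichment of output over input reads, with centring on the mode score of non-aggregating sequences. A minimum of 100 input reads was required for each sequence. Reads came from Illumina sequencing of plasmid inserts from psi-negative yeast expressing Sup35N fused to peptides of 20 random codons, induced with 100 μM copper sulfate for 24 hours and grown 7 days at 30°C on medium lacking adenine and uracil.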
Take GYYNSYQAELMTTACSDYVD: the amyloid nucleation score entry was “inactive”.

PTHLCFLQFTVAIFVSGIRA came in with an amyloid nucleation score of 0.851 ± 0.12.

On to ALQLRVPDDVWLYVCYSRMN, for which the amyloid nucleation score entry is “inactive”.

As to IIYMMLYVKEGMSWTSLPDQ, the amyloid nucleation score entry was “inactive”.

As to NIIEPFKWTTTSLYNSDFYF, the amyloid nucleation score result is “inactive”.

Take MSVTITGALQVVTKVPANMI: the amyloid nucleation score worked out at 0.593 ± 0.2.

As for FGRSVDFMVIHFCTTY, the amyloid nucleation score entry was “inactive”.

Regarding LAPGRLCLMGIKRTTSWWSS, the amyloid nucleation score result was “inactive”.

For IAIKNSSRRYMNYERLFTKL, the amyloid nucleation score entry is “inactive”.

Consider GRFRLMNLFQTDSRINLWVR, for which the amyloid nucleation score result is “inactive”.

LMPCALFSGVYEAGRHGSFL gave an amyloid nucleation score of 0.462 ± 0.34.

In turn, SMANFTAETSDIRINFIVSM displayed an amyloid nucleation score of 0.779 ± 0.14.

As for VDRVYTLREFEVHGGTWFGV, the amyloid nucleation score entry was “inactive”.

Regarding LVVCYGNWMRLVGIFINGNS, the amyloid nucleation score result is “inactive”.

For LKFFVYLLNLYEDFLPVRFS, the amyloid nucleation score result was “inactive”.

With SVFQWHPFIESKGNLLSTVK, the amyloid nucleation score entry was “inactive”.

SVKRDFFSLFRFVSNAVSED: the amyloid nucleation score entry is “inactive”.

As to HGMTIMLGVGWYLWDGSTEG, the amyloid nucleation score was determined as 0.657 ± 0.16.

In the case of LKYEERSGWWSLGSGVCGVV, the amyloid nucleation score entry is “inactive”.

Regarding IVSWLVRMVSWGVCRK, the amyloid nucleation score entry is “inactive”.

NEVETESCIELTFPMQYWQV: the amyloid nucleation score came out at 2.24 ± 0.093.

LFLSDKLPTFSRLNKCMLGV yielded an amyloid nucleation score of -1.31 ± 1.9.

For the substance WYSRTDCNKTAENSCSTKFI, the amyloid nucleation score worked out at 0.611 ± 0.17.

For the substance VIKSIWQSYGRKRSYLDMSI, the amyloid nucleation score entry is “inactive”.

RSNVVAQMYQKMLLSRYCTI: the amyloid nucleation score was 0.354 ± 0.27.

Take LDCLLFKKCFVVRGLNDYSE: the amyloid nucleation score entry was “inactive”.

Take RGQFYLLVARLNSKM: the amyloid nucleation score entry was “inactive”.

INNLFTRVSSIRFCVRS: the amyloid nucleation score entry was “inactive”.

With PHMQCLINF, the amyloid nucleation score entry was “inactive”.

Regarding KIILEIAMRTSLCRPTSSYL, the amyloid nucleation score stood at 1.03 ± 0.099.

Take RCNHSCFGSIMGCVVLCPGE: the amyloid nucleation score was 1.33 ± 0.13.

Turning to CCACWGINHSYGLSTEVSQY, the amyloid nucleation score entry is “inactive”.

For CLQDPFPTIVPIVMGSIAKE, the amyloid nucleation score result was “inactive”.

With LIMLFHSWMSTRWYGVVSNS, the amyloid nucleation score result is “inactive”.

With WLSYIDGSKVELIVQAW, the amyloid nucleation score entry was “inactive”.

Take CDLDLLHGWCGNKRMGSCGR: the amyloid nucleation score entry was “inactive”.

With SRHTICHKQNSCRKVLSPPH, the amyloid nucleation score result is “inactive”.

For the substance LDFYRTFNDSIFKMGPLCLS, the amyloid nucleation score entry is “inactive”.

Regarding AALVGLRCIAWNYCDTRKRI, the amyloid nucleation score result is “inactive”.

As for NKSWWKYVPIDDGELYMRAV, the amyloid nucleation score entry was “inactive”.

Turning to SVTFANTSRHYPLADLSTPT, the amyloid nucleation score is 0.162 ± 0.27.

Turning to VLNDFMCDFGSWPRVIVIRT, the amyloid nucleation score result was “inactive”.

On to ILVCESV, for which the amyloid nucleation score entry is “inactive”.

Consider SNFLGNQRMLRSAQIPRMRL, for which the amyloid nucleation score result was “inactive”.

On to HGCWKQPDQVVLLWSHRFFR, for which the amyloid nucleation score entry is “inactive”.

For HVVIARTNRGDYNCFSSDGG, the amyloid nucleation score result was “inactive”.

As to VYQQSWQVLDFVRWDTERME, the amyloid nucleation score entry was “inactive”.

AFCNTIETDMNSAPVFLRAA: the amyloid nucleation score entry is “inactive”.

Take NSPNTNVPGFSRGAFAGGRH: the amyloid nucleation score result was “inactive”.

As for PNHELYM, the amyloid nucleation score entry was “inactive”.

With LDFWRESVGAKE, the amyloid nucleation score entry is “inactive”.

These data come from the supplement of paper PMC12042874.
